Test results from US20220362394A1 (SUTRO BIOPHARMA, published 2022).
Like-named read-outs stand apart in the source and are kept apart here.

Assays:
[1] = target: T1, human BCMA on cells (human, UniProt Q02223 1-184); test: FACS, ARP-1 cells
T1 construct: also called hBCMA; BCMA on NCI-H929, ARP-1, OPM-2, U266B1, MM.1S, RPMI-8226 cells
T1 sequence: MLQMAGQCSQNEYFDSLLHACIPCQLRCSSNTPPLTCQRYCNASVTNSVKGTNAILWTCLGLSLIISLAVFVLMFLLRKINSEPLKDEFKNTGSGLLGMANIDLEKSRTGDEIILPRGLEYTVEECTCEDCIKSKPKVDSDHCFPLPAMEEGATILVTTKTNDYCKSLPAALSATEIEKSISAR
Protocol: (§1) Cells were analyzed using a BD FACS Canto system. Fluorescence-activated cell sorting (FACS) data were analyzed using Flowjo software to calculate mean fluorescence intensity (MFI) (n=3 replicates) and data (mean MFI+/−standard error of the mean [SEM] versus nM of the antibody) was generated using the GraphPad Prism software.

[2] = target: T1, human BCMA on cells; test: FACS, MM.1S cells
Protocol: as §1

[3] = target: T1, human BCMA on cells; test: FACS, OPM-2 cells
Protocol: as §1

[4] = target: T1, human BCMA on cells; test: FACS, U266B1 cells
Protocol: as §1

[5] = target: T1, human BCMA on cells; test: FACS, NCI-H929 cells
Protocol: as §1

[6] = target: T1, human BCMA on cells; test: FACS, RPMI-8226 cells
Protocol: as §1

[7] = target: T1, human BCMA on cells; test: cell-based or functional assay
[8] = target: T1, human BCMA on cells; test: cell-based or functional assay; remark: listed apart in the source
[9] = target: T1, human BCMA on cells; test: cell-based or functional assay; remark: listed apart in the source
[10] = target: cynomolgus BCMA on cells (cynomolgus monkey, UniProt Q02223 1-184 (human entry)); test: FACS, 293T-cBCMA cells
Sequence of cynomolgus BCMA on cells (Q02223 other isoform, or with tags, fused parts or gaps): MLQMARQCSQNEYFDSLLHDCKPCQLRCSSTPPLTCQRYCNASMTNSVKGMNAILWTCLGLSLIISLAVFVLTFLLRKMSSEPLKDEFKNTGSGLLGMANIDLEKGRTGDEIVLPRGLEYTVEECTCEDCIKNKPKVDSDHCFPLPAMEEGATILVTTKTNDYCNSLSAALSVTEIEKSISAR
Protocol: (§2) Cells were collected, washed and resuspended in FACS buffer (DPBS buffer with 1% bovine serum albumin and 0.05% v/v sodium azide). […] Ab binding was detected with phycoerythrin-conjugated anti-human Fc Ab (Jackson ImmunoResearch, West Grove, Pa.) for 1 hour on ice. Cells were analyzed using a BD FACS Canto system.

[11] = target: T2, mouse BCMA on cells (mouse, UniProt O88472 1-185); test: FACS, 293T-mBCMA cells; NB: No binding
T2 construct: HEK293T cells transfected with plasmid encoding mouse BCMA (Invivogen)
T2 sequence: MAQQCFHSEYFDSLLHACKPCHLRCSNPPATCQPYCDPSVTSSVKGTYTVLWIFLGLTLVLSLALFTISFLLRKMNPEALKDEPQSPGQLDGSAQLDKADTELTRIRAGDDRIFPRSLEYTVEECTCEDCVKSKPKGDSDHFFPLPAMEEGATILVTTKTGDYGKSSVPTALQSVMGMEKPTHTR
Protocol: Cells were plated in 96-well plates (100 k per well) and incubated with antibodies (titrated half-log serial dilutions from 200 nM) for 1 hour on ice. […] Cells were analyzed using a BD LSR-Fortessa X-20 flow cytometry system. FACS data were analyzed using Flowjo software to calculate geometric fluorescence intensity (gMFI) (n=3 replicates) and data (geo. Mean MFI+/−SEM versus log nM Ab) were generated using GraphPad Prism software.

[12] = target: T3, human TACI on cells (human, UniProt O14836 1-293); test: flow cytometry on 293T cells stably expressing human TACI, detected with PE-conjugated anti-human Fc antibody
T3 construct: whole, on cells; also called TNFRSF13B
T3 sequence (looked up): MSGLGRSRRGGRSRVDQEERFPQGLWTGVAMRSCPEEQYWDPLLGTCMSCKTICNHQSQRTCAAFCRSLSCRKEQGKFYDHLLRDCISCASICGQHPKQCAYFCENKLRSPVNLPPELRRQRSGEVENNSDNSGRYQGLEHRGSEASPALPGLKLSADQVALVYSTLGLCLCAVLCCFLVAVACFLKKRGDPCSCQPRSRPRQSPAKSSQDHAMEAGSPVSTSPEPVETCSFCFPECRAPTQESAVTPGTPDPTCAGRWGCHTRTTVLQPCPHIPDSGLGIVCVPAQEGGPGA
Protocol: (§3) Cells were plated in 96-well plates (100K per well) and incubated with Abs. […] ADC binding was detected with phycoerythrin-conjugated anti-human Fc Ab (Jackson ImmunoResearch, West Grove, Pa.) for 1 hour on ice. Cells were analyzed using a BD FACS Canto system. FACS data were analyzed using Flowjo software to generate cell binding histograms.

[13] = target: T4, human BAFF-R on cells (human, UniProt Q96RJ3 1-184); test: flow cytometry on 293T cells stably expressing human BAFF-R, detected with PE-conjugated anti-human Fc antibody
T4 construct: whole, on cells; also called TNFRSF13C
Protocol: as §3

[14] = target: T1, human BCMA on cells; test: FACS, 293T-hBCMA cells
Protocol: as §2

B1: Conjugate 4 (antibody, human IgG1, kappa, V domains shown)
VH: EVQLVESGGGLVQPGGSLRLSCAASGFNISAPGIHWVRQAPGKGLEWVGFINPAGGYTDYADSVKGRFTISADTSKNTAYLQMNSLRAEDTAVYYCARDYIRQYWTYVLDYWGQGTLVTVSS
VL: not shown
modifications: p-azidomethyl-phenylalanine in place of HC-Y180 and HC-F404 (EU numbering), each bonded to a non-cleavable maytansine linker-warhead (Conjugate M); DAR4
notes: also called Conjugate 4 ADC; SP8919 ADC
Binder B1 has a Kd [1] of 1.2 nM, a Kd [2] of 1.6 nM and a Kd [3] of 2.3 nM. For the same binder, the Kd [4] was 3.9 nM, the Kd [5] was 2.4 nM and the Kd [6] was 1.8 nM. The “cell killing EC50, NCI-H929, Experiment 1” value [7] was 0.8 nM, the “cell killing EC50, NCI-H929, Experiment 2” value [7] was 0.8 nM and the “cell killing EC50, OPM2, Experiment 1” value [7] was 1.7 nM. The “cell killing EC50, OPM2, Experiment 2” value [7] was 1.8 nM, the “cell killing EC50, U266B1, Experiment 1” value [7] was 0.8 nM and the “cell killing EC50, U266B1, Experiment 2” value [7] was 0.9 nM. For the same binder, the “cell killing EC50, NCI-H929, Experiment 1” value [8] was 0.7 nM, the “cell killing EC50, NCI-H929, Experiment 2” value [8] was 0.8 nM and the “cell killing EC50, OPM2, Experiment 1” value [8] was 1.7 nM. The “cell killing EC50, OPM2, Experiment 2” value [8] was 2 nM, the “cell killing EC50, U266B1, Experiment 1” value [8] was 0.7 nM and the “cell killing EC50, U266B1, Experiment 2” value [8] was 0.8 nM. The “cell killing EC50, ARP-1, no competing reagent” value [9] was 0.7 nM, the “cell killing EC50, NCI-H929, no competing reagent” value [9] was 0.9 nM and the “cell killing EC50, OPM2, no competing reagent” value [9] was 3.3 nM. The “cell killing EC50, U266B1, no competing reagent” value [9] was 0.9 nM, the Kd [10] was 2.7 nM and the binding result [11] was “no binding (tested: 200 nM)”. B1: no binding (tested: 67 nM) [12]; no binding (tested: 67 nM) [13].

B2: 2265-F02 Y180/F404 (unconjugated Ab) (antibody, human IgG1, kappa, V domains shown)
VH: B1 VH
VL: not shown
modifications: p-azidomethyl-phenylalanine in place of HC-Y180 and HC-F404 (EU numbering), unconjugated
notes: also called unconjugated anti-BCMA antibody, 2265-F02; unconjugated antibody version of Conjugate 4
With B2 the Kd [1] was 1 nM, the Kd [2] was 0.9 nM and the Kd [3] was 1.3 nM. It also gave a Kd [5] of 0.9 nM, a Kd [6] of 1.3 nM and a Kd [10] of 2.8 nM. For the same binder, the Kd [14] was 2.1 nM and the binding result [11] was “no binding (tested: 200 nM)”.
